Laboratory results taken from patent publication US20250197467A1 (BRIGHT PEAK THERAPEUTICS, published 2025).

T1: IL-18 receptor (IL-18Rαβ) on cells (UniProt Q13478 19-541; O95256 20-599, limits assumed)
T1 sequence (looked up) 1: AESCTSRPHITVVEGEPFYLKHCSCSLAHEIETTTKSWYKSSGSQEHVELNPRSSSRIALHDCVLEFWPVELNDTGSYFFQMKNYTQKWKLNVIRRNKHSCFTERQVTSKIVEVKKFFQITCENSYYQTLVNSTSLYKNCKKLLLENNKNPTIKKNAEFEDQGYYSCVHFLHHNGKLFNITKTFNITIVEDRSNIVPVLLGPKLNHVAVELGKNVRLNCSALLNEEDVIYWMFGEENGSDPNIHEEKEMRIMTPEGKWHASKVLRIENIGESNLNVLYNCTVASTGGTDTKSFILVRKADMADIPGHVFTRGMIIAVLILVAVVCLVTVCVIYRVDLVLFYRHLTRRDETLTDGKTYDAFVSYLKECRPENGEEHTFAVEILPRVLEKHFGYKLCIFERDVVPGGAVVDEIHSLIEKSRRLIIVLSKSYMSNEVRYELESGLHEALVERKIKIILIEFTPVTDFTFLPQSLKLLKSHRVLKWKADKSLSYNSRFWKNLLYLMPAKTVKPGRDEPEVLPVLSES
T1 sequence (looked up) 2: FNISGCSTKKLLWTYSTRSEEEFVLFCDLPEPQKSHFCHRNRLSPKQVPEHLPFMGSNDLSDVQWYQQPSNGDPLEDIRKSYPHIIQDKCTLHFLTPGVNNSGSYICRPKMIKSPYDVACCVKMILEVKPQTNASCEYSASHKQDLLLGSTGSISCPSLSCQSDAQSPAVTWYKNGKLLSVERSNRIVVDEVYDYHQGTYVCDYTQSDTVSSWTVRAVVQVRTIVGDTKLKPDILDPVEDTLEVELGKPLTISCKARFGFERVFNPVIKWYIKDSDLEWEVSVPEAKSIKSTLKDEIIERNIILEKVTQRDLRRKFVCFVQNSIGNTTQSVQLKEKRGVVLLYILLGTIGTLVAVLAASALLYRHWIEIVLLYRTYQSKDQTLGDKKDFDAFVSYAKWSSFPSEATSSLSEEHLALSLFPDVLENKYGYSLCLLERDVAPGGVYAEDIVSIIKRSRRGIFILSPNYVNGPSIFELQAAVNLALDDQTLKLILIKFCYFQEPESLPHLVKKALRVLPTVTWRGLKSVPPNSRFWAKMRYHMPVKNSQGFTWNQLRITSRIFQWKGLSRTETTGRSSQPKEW


The binders below were run against T1, IL-18 receptor (IL-18Rαβ) on cells (assay: cell-based or functional assay).

Row | HEK-Blue IL-18R reporter EC50 | Binder
1 | 3.73 pM | SEQ ID NO 56 (ligand) YFGKLKSKLSVIRNLNDQVLFIDQGNRPLFEDMTDSDSRDNAPRTIFIISMYADSQPRGMAVTISVKCEKISTLSSENKIISFKEMNPPDNIKDTKSDIIFFQRSVPGHDNKMQFESSSYEGYFLASEKERDLFKLILKKEDELGDRSIMFTVQNED
2 | 0.4 pM | C179 (ligand) YFGKLKSELSIIRNLNDQVLFIDQGNRPLFEDMTDSDARDNAPRTIFIISMYADSQPRGMAVAISVKCEKISTLSAENKIISFKEMNPPDNIKDTKSDIIFFRRSVPGHDNKMQFESSSYEGYFLAAEKERDLFKLILKKEDELGDRSIMFTVQNED
3 | 0.1 pM | C183 (ligand) YFGKLKSKLSIIRNLNDQVLFIDQGNRPLFEDMTDSDARDNAPRTIFIISGYADSQPRGMAVAISVKCEKISTLSAENKIISFKEMNPPDNIKDTKSDIIFFQRSVPGHDNKMQFESSSYEGYFLAAEKERDLFKLILKKEDELGDRSIMFTVQNED
4 | 0.1 pM | C181 (ligand) YFGKLKSKLSIIRNLNDQVLFIDQGNRPLFEDMTDSDARDNAPRTIFIISMYADSQPRGMAVAISVKCEKISTLSAENKIISFKEMNPPDNIKDTKSDIIFFQRSVPGHDNKMQFESSSYEGYFLAAEKERDLFKLILKKEDELGDRSIMFTEQNED
5 | 0.04 pM | C184 (ligand) YFGKLRSKLSIIRNLNDQVLFIDQGNRPLFEDMTDSDARDNAPRTIFIISMYADSQPRGMAVAISVKCEKISTLSAENKIISFKEMNPPDNIKDTKSDIIFFQRSVPGHDNKMQFESSSYEGYFLAAEKERDLFKLILKKEDELGDRSIMFTVQNED
6 | 0.07 pM | C176 (ligand) YFGKLKSKLSIIRNLNDQVLFIDQGNRPLFEDMTDSDARDNAPRTIFIMSMYADSQPRGMAVAISVKCEKISTLSAENKIISFKEMNPPDNIKDTKSDIIFFQRSVPGHDNKMQFESSSYEGYFLAAEKERDLFKLILKKEDELGDRSIMFTVQNED
7 | 0.26 pM | C178 (ligand) YFGKLKSKLSIIRNLNDQVLFIDQGNRPLFEDMTDSDARDNAPRTIFIISMYADSQPRGMAVAISVKCEKISTLSAENKIISFKEMNPPDNIKDTKSDIIFFRRSVPGHDNKMQFESSSYEGYFLAAEKERDLFKLILKKEDELGDRSIMFTVQNED
8 | 0.04 pM | C177 (ligand) YFGKLKSKLSIIRNLNDQVLFIDQGNRPLFEDMTDSDARDNAPRTIFIRSMYADSQPRGMAVAISVKCEKISTLSAENKIISFKEMNPPDNIKDTKSDIIFFQRSVPGHDNKMQFESSSYEGYFLAAEKERDLFKLILKKEDELGDRSIMFTVQNED
9 | 0.29 pM | C174 (ligand) YFGKLKSLLSIIRNLNDQVLFIDQGNRPLFEDMTDSDARDNAPRTIFIISMYADSQPRGMAVAISVKCEKISTLSAENKIISFKEMNPPDNIKDTKSDIIFFQRSVPGHDNKMQFESSSYEGYFLAAEKERDLFKLILKKEDELGDRSIMFTVQNED
10 | 0.08 pM | C182 (ligand) YFGKLKSKLSIIRNLNDQVLFIDQGNRPLFEDMTDSDARDNAPRTIFIISMYADSQPRGMAVAISVKCEKISTLSAENKIISFKEMNPPDNIKDTKSDIIFFQRSVPGHDNKMQFESSSYEGYFLAAEKERDLFKLILKKEDELGDRSIMFTYQNED
11 | 2.5 pM | C140 (ligand) GGGGYFGKLKSKLSIIRNLNDQVLFIDQGNRPLFEDMTDSDARDNAPRTIFIISMYADSQPRGMAVAISVKCEKISTLSAENKIISFKEMNPPDNIKDTKSDIIFFQRSVPGHDNKMQFESSSYEGYFLAAEKERDLFKLILKKEDELGDRSIMFTVQNED
